Source: article PMC8194828

Assays:
[1] = tested on: PIP4K2A G131L Y138F (kinase dead) (Homo sapiens); assay: EMSA; details: EMSA 60 min 16 C, 5 ug yeast tRNA, 40 U RNase inhibitor; fluorescent: 500 mM NaCl, 10 mM Tris pH 7.5, 10% glycerol; radioactive: 30 mM KCl, 1 mM MgCl2, 40 mM …
[2] = tested on: PIP4K2A (WT) (Homo sapiens); assay: EMSA; details: EMSA 60 min 16 C, 5 ug yeast tRNA, 40 U RNase inhibitor; fluorescent: 500 mM NaCl, 10 mM Tris pH 7.5, 10% glycerol; radioactive: 30 mM KCl, 1 mM MgCl2, 40 mM …

| Substance | Kd [1] [nM] | Kd [2] [nM] |
| --- | --- | --- |
| RAD51-short (5' proximal 35 bases of RAD51 3'UTR) | 850 | 500 |
| RAD51 3'UTR | – | 750 |
